Reference: the supplement of paper PMC10065799, “High-throughput profiling of sequence recognition by tyrosine kinases and SH2 domains using bacterial peptide display” (eLife, 2023)

target: MERTK (UniProt Q12866); test: phosphorylation enrichment, bacterial display (enrichment ratio); higher = better substrate or ligand; peptides without Tyr show the background
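Also: 11-residue human phosphosite peptides and single-mutation variants displayed on the E. coli surface, counted by deep sequencing, each peptide's frequency after selection divided by its frequency in the unselected input library; frequency after pTyr selection over input frequency; kinase dosed for 20-30% of maximal phosphorylation in three min.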

Sequence of MERTK (Q12866 whole entry, looked up): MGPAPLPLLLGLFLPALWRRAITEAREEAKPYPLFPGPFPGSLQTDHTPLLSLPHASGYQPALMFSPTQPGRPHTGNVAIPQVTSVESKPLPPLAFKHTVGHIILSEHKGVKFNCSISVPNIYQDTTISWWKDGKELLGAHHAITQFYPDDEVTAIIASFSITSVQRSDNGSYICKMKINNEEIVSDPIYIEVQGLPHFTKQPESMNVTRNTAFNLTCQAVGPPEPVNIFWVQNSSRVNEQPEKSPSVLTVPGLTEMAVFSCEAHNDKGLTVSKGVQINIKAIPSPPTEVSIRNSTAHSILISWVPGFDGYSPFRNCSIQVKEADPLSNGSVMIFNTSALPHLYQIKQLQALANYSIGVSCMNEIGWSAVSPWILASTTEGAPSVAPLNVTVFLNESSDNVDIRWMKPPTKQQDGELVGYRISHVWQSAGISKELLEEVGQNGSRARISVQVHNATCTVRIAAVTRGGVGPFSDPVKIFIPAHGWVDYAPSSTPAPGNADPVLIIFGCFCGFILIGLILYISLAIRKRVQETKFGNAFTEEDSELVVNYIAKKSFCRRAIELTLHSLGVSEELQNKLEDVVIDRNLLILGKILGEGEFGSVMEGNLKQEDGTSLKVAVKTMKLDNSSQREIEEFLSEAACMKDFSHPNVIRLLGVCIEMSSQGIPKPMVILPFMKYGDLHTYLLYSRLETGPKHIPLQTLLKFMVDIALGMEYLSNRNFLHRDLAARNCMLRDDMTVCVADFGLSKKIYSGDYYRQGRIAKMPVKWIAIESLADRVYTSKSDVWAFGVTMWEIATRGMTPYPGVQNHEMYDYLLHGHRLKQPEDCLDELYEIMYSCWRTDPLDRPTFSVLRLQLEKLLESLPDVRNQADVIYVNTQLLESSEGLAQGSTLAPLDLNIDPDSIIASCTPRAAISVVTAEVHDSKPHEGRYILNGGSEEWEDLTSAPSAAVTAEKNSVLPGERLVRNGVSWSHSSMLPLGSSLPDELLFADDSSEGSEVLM

Sequence | phosphorylation enrichment
IMAYFYMCDSA [CASD1_Y382_R386S] | 0.505
RLMLQYDAVVN [SLC25A32_Y152] | 0.414
RTMPDYTSFNT [EPHB2_Y912_I909M] | 0.459
FADIAYNYRHG [PAH_Y166] | 0.404
SREDIYKRNTE [PDE4DIP_Y45_I49T] | 0.374
RENGPYFASFP [GDAP2_Y487_T489A_YF] | 0.565
VGTKRYMASEV [ACVRL1_Y375_P378S] | 0.389
QLRPGYFPIPV [BAG3_Y93_I94F] | 0.531
HIAKGYRRDNP [HARS1_Y156_V155G] | 0.399
KASGKYFAMKI [AKT3_Y173_YF] | 0.367
KDFNKYVAFIE [KDM4B_Y31_YF] | 0.424
MGSYNYLGFPR [SPTLC2_Y178_A182P] | 6.35
HNLNYYKKTTN [FGFR3_Y648_D646N] | 0.479
WVFNHYRWIIW [BRCA2_Y2624_YF] | 0.437
MSRDVYSTDFF [NTRK2_Y702_YF] | 5.05
NNKKDYFDMFE [SLC26A3_Y526_K521N_YF] | 0.46
NWGSPYKSNGC [ZNF347_Y261] | 0.41

Sequence | phosphorylation enrichment
FTNRNYDLDFD [MYC_Y12_YF] | 0.494
KQNSLYSFSDH [CCDC82_Y331] | 9.08
DPLLTHRFPPK [LMNA_Y481_Y481H] | 0.421
MFDKEYFSVHN [MET_Y1234_YF] | 0.393
MSSLFYANALF [HOXB7_Y6_T9A_YF] | 1.29
GVTLLYFGRDN [ADGRD1_Y85_Y89D_YF] | 0.321
EHIEFYELDKK [PMM2_Y145_R141H] | 0.514
LRRREYQRQDY [PRKRIP1_Y90] | 0.541
NTVLGYFIGRI [GARS1_Y408] | 0.423
KASIMYPSSNC [CXCL11_Y52_N55S] | 0.395
HMEAVYIDIAD [PITPNA_Y140_V136M] | 1.43
KLRMESLSLMH [NCKIPSD_Y660_Y660S] | 0.436
ITLKGYNLSNS [GNPTAB_Y728_K732N] | 0.381
QGIFGYHHFMQ [UFSP2_Y287_YF] | 0.549
GFSDPYVKAFL [SYT3_Y470_S474F] | 0.472
CEHRGSLYLAI [TEK_Y897_Y897S] | 1.24

tested on: c-Abl (mouse); test: as above

Sequence | phosphorylation enrichment
IMAYFYMCDSA [CASD1_Y382_R386S] | 1.07
RLMLQYDAVVN [SLC25A32_Y152] | 0.685
RTMPDYTSFNT [EPHB2_Y912_I909M] | 0.618
FADIAYNYRHG [PAH_Y166] | 0.577
SREDIYKRNTE [PDE4DIP_Y45_I49T] | 0.898
RENGPYFASFP [GDAP2_Y487_T489A_YF] | 0.893
VGTKRYMASEV [ACVRL1_Y375_P378S] | 0.509
QLRPGYFPIPV [BAG3_Y93_I94F] | 0.53
HIAKGYRRDNP [HARS1_Y156_V155G] | 0.543
KASGKYFAMKI [AKT3_Y173_YF] | 0.447
KDFNKYVAFIE [KDM4B_Y31_YF] | 0.629
MGSYNYLGFPR [SPTLC2_Y178_A182P] | 1.04
HNLNYYKKTTN [FGFR3_Y648_D646N] | 0.554
WVFNHYRWIIW [BRCA2_Y2624_YF] | 0.862
MSRDVYSTDFF [NTRK2_Y702_YF] | 0.568
NNKKDYFDMFE [SLC26A3_Y526_K521N_YF] | 0.723
NWGSPYKSNGC [ZNF347_Y261] | 0.667

Sequence | phosphorylation enrichment
FTNRNYDLDFD [MYC_Y12_YF] | 1.01
KQNSLYSFSDH [CCDC82_Y331] | 0.691
DPLLTHRFPPK [LMNA_Y481_Y481H] | 0.395
MFDKEYFSVHN [MET_Y1234_YF] | 0.782
MSSLFYANALF [HOXB7_Y6_T9A_YF] | 0.696
GVTLLYFGRDN [ADGRD1_Y85_Y89D_YF] | 0.643
EHIEFYELDKK [PMM2_Y145_R141H] | 0.588
LRRREYQRQDY [PRKRIP1_Y90] | 0.554
NTVLGYFIGRI [GARS1_Y408] | 0.634
KASIMYPSSNC [CXCL11_Y52_N55S] | 0.497
HMEAVYIDIAD [PITPNA_Y140_V136M] | 1.06
KLRMESLSLMH [NCKIPSD_Y660_Y660S] | 0.508
ITLKGYNLSNS [GNPTAB_Y728_K732N] | 0.466
QGIFGYHHFMQ [UFSP2_Y287_YF] | 1.13
GFSDPYVKAFL [SYT3_Y470_S474F] | 0.772
CEHRGSLYLAI [TEK_Y897_Y897S] | 0.933
